The chains are these.
B1: bsUBP3 T77C: bsUBP3 77C cysteine mutant (SEQ ID NO: 44), tested as Acrylodan conjugate (conjugate)
chain: MKVGILHSLSGTMAISEVSVHDAELIAIQEINQKGGVLGKKLEPVVEDGASDWPTYAEKMRKLLQQDKVAAVFGGWCSASRKAMLPVVEQNNGLLFYPVQYEGMETSPNIFYTGATTNQQIVPAVDWLLKNKGKKFFLIGSDYVFPRTANKIIKAQVKAGGGEIAGEEYTPLGHTNYSTLVSKIKEKQPDVIFNTLNGDSNVAFFKQLKDAGISADDMPVMSASVAEEEIRGIGPDVLKGHYAVWNYFQTTNTSENQTFVKNYKKMNGDSRVTSDPIEAGYNAVYLWAAAVEKAKSFDVDKVKKAADGISFKAPGGTVKIDGDTQHLYKTVRIGQITGDGQFKEVWNSGEPVKPDPYLKTYDWAKGLSKGGSHHHHHH
modifications: Acrylodan conjugate; bsUBP3_77C (77C substitution mutant with signal peptide replaced with M and a GGSHHHHHH at C-terminus)
B2: bsUBP3 L172C: bsUBP3 172C cysteine mutant (SEQ ID NO: 48), tested as Acrylodan conjugate (conjugate)
chain: B1 chain with C77T, L172C
modifications: Acrylodan conjugate; bsUBP3_172C (172C substitution mutant with signal peptide replaced with M and a GGSHHHHHH at C-terminus)
B3: bsUBP3 A79C: bsUBP3 79C cysteine mutant (SEQ ID NO: 46), tested as Acrylodan conjugate (conjugate)
chain: B1 chain with C77T, A79C
modifications: Acrylodan conjugate; bsUBP3_79C (79C substitution mutant with signal peptide replaced with M and a GGSHHHHHH at C-terminus)
B4: csUBP7 R95C: csUBP7 95C cysteine mutant (SEQ ID NO: 32), tested as Acrylodan and Badan conjugates (conjugate)
chain: MSSSESEKEKSEETIKVGILHSLSGTMSISEVSLKDAELMAIEEINNNGGVLGKKLEPIVEDGASDWPTFAEKAKKLLQKDKVAVIFGAWTSASCKAVLPVVEENNGLLFYPVQYEGLESSPNIFYMGAAPNQQIVPAVKWLFDNGKKRFYLLGSDYVFPRTANKIIKAYLKYLGGVVVGEEYTPLGHTDYSSVINKIKAAKPDVVFNTLNGDSNVAFFKQLKDAGIDANTLPVMSVSIAEEEIKGIGPEYLKGHLVTWNYFQSVDTPENKEFVEKYKKKYGEDRVTDDPIEAAYIGVYLWAKAVEKAGSTDVDKVREAAKGIEFNAPEGPVKIDGDNQHLYKTVRIGEILENGQIRELWKTNKPVKPDPYLKGYEWAQGLSEQGGSHHHHHH
modifications: Acrylodan or Badan conjugate; csUBP7_95C (95C substitution mutant with signal peptide replaced with M and a GGSHHHHHH at C-terminus, and also comprising a C89A substitution)
B5: csUBP7 S238C: csUBP7 238C cysteine mutant (SEQ ID NO: 42), tested as Acrylodan and Badan conjugates (conjugate)
chain: B4 chain with C95R, S238C
modifications: Acrylodan or Badan conjugate; csUBP7_238C (238C substitution mutant with signal peptide replaced with M and a GGSHHHHHH at C-terminus, and also comprising a C89A substitution)
B6: csUBP7 F159C: csUBP7 159C cysteine mutant (SEQ ID NO: 39), tested as Acrylodan and Badan conjugates (conjugate)
chain: B4 chain with C95R, F159C
modifications: Acrylodan or Badan conjugate; csUBP7_159C (159C substitution mutant with signal peptide replaced with M and a GGSHHHHHH at C-terminus, and also comprising a C89A substitution)
B7: csUBP7 V158C: csUBP7 158C cysteine mutant (SEQ ID NO: 38), tested as Acrylodan and Badan conjugates (conjugate)
chain: B4 chain with C95R, V158C
modifications: Acrylodan or Badan conjugate; csUBP7_158C (158C substitution mutant with signal peptide replaced with M and a GGSHHHHHH at C-terminus, and also comprising a C89A substitution)
B8: csUBP7 T26C: csUBP7 26C cysteine mutant (SEQ ID NO: 23), tested as Acrylodan and Badan conjugates (conjugate)
chain: B4 chain with T26C, C95R
modifications: Acrylodan or Badan conjugate; csUBP7_26C (26C substitution mutant with signal peptide replaced with M and a GGSHHHHHH at C-terminus, and also comprising a C89A substitution)
B9: csUBP7 M27C: csUBP7 27C cysteine mutant (SEQ ID NO: 24), tested as Acrylodan and Badan conjugates (conjugate)
chain: B4 chain with M27C, C95R
modifications: Acrylodan or Badan conjugate; csUBP7_27C (27C substitution mutant with signal peptide replaced with M and a GGSHHHHHH at C-terminus, and also comprising a C89A substitution)

Positions count from the first letter of the chain named. Names and notes keep the numbering of the source.

Data on nine molecules can be found in patent publication US11906524B2, “Urea biosensors and uses thereof” (Duke University, priority 2015, dated 2024).

One experiment can be described thus: Temperature- and urea-dependent fluorescence landscapes of fluorescent conjugates (Roche LightCycler). Format: binding. The arrangement: key: y, yes; n, no. The conditions noted are these: Acrylodan conjugate; fluorescent response to urea. As for the experimental part:
We constructed 20 single cysteine mutants in csUBP7, exploring 7 endosteric, 12 peristeric, and 1 allosteric position (FIG. 9). At each position we attached the Prodan-derived fluorophores Acrylodan and Badan, which differ by one methylene group in their thiol-reactive linker. The fluorescent responses of these conjugates was determined initially as a function of urea concentration and temperature (FIG. 10). […] The ligand dependence of the emission spectra shapes was determined for these conjugates (Table 8).
Determination of temperature- and ligand-dependent fluorescence landscapes. […] Urea concentrations were varied from 0-4.8 M in 20 mM KCl, 20 mM MOPS (pH 7.4). […] Temperatures were advanced in 1K steps.
(§1) Ratiometric analysis of urea binding. […] 2
(§2) For a single urea-binding site, the fractional saturation is given by
(§3) [formula] where [L] is the ligand (urea) concentration and Kd the dissociation constant, ^trueKd for ytrue.
To obtain the temperature dependence of the binding reaction, the Kd values of all the individually determined isotherms were fit the Gibbs-Hemholtz equation (Layton and Hellinga, 2010, Biochemistry, 49, 10831-41):
[formula] where ΔGb^•(T) is the standard free energy of binding at 1 M ligand at temperature T,
[formula] Δ^refHb^• and Δ^refSb^• the molar enthalpy and entropy of binding, respectively, at the reference temperature, Tref, and ΔCp,b the heat capacity of the binding reaction.
Take B1: the Response result is listed as “y”.

For B2, the Response result is given as “y”.

For the molecule B3, the Response result is recorded as “y”.

Turning to B4, the Response result is “y”.

Turning to B5, the Response result is recorded as “n”.

As for B6, the Response entry is “n”.

Take B7: the Response result was “n”.

With B8, the Response entry was “y”.

B9: the Response result is recorded as “y”.

Still in this experiment, the particulars now being: Badan conjugate; fluorescent response to urea.
B4: the Response result is “y”.

For the molecule B5, the Response result is on record as “n”.

As to B6, the Response entry was “n”.

Regarding B7, the Response result is on record as “n”.

As for B8, the Response entry was “y”.

With B9, the Response entry was “y”.

A further experiment can be described thus: Urea titration of emission intensity spectra (Nanodrop3300) with ratiometric analysis, singly labeled conjugates. Format: binding. The conditions noted are these: Acrylodan and Badan conjugates screened. Further details: key to Acrylodan Intensity / Badan Intensity: +, increases in response to urea; −, decreases; 0, no change; key to Badan Dipoles / Acrylodan Dipoles: blue, (maxima <500 nm); g, green (maxima >500 nm); b/g, mixed population; key to Acrylodan Shape / Badan Shape: m, monochromatic; d, dichromatic (i.e. spectral shape changes); 0, no change.
Text: Determination of emission intensity spectra.
as §1, §2, §3
[formula] where ^appIλ2 and ^satIλ2 are the emission intensities of the monochromatic signal at wavelength λ2 of the ligand-free and ligand-bound protein, respectively.
On to B4, for which the “ratiometric response to urea” value is “good ratiometric responses”.

Still in this experiment, the particulars now being: csUBP7 Acrylodan conjugate; emission intensity change on urea.
Take B4: the “Acrylodan Intensity” value is “−”.

Turning to B8, the “Acrylodan Intensity” value was “−”.

For the molecule B9, the “Acrylodan Intensity” value is given as “+”.

The same experiment, now with this note: csUBP7 Acrylodan conjugate; emission spectrum shape change on urea.
For B4, the “Acrylodan Shape” value is on record as “m”.

With B8, the “Acrylodan Shape” value is given as “d”.

B9: the “Acrylodan Shape” value is “m”.

Staying with this experiment, now noted: csUBP7 Acrylodan conjugate; estimated change in populations of major emission bands.
For the molecule B4, the “Acrylodan Dipoles” value is reported as “b (blue, (maxima <500 nm))”.

Take B8: the “Acrylodan Dipoles” value is recorded as “b→g”.

B9: the “Acrylodan Dipoles” value is “g (g, green (maxima >500 nm))”.

Staying with this experiment, now noted: csUBP7 Acrylodan conjugate; urea; read-out: Acrylodan ^trueKd.
B4: the Kd stood at 300 µM.

B8: the Kd turned out to be 90 µM.

As to B9, the Kd was 4600 µM.

The same experiment, now with this note: csUBP7 Badan conjugate; emission intensity change on urea.
Take B4: the “Badan Intensity” value is “+”.

As for B8, the “Badan Intensity” value was “−”.

Regarding B9, the “Badan Intensity” value is listed as “−”.

Staying with this experiment, now noted: csUBP7 Badan conjugate; emission spectrum shape change on urea.
B4: the “Badan Shape” value is “d”.

Consider B8, for which the “Badan Shape” value is on record as “m”.

Regarding B9, the “Badan Shape” value was “d”.

Staying with this experiment, now noted: csUBP7 Badan conjugate; estimated change in populations of major emission bands.
As for B4, the “Badan Dipoles” value was “g→b”.

Regarding B8, the “Badan Dipoles” value was “b/g”.

Regarding B9, the “Badan Dipoles” value was “g→b/g”.

Staying with this experiment, now noted: csUBP7 Badan conjugate; urea; read-out: Badan ^trueKd.
On to B4, for which the Kd is 2200 µM.

Regarding B8, the Kd came out at 300 µM.

On to B9, for which the Kd turned out to be 3200 µM.
